Test results as given in paper PMC12363810.

Target: proliferating cell nuclear antigen (PCNA), Saccharomyces cerevisiae (Saccharomyces cerevisiae) (UniProt P15873)
Assay: single-molecule correlative force and fluorescence microscopy

UniProt P15873, sequence (P15873 whole entry): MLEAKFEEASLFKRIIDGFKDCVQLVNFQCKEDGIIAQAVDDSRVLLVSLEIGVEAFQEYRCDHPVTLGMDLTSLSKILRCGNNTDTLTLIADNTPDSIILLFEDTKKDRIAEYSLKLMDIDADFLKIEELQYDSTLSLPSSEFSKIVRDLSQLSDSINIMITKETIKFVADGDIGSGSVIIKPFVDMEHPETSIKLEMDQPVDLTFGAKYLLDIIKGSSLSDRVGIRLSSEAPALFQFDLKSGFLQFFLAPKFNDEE

replication factor C (RFC), Saccharomyces cerevisiae, full-length (from UniProt P38630 1-861) (complex)
tethers with RFC along the path of fill-in together with PCNA (of 14 tethers): 9
